The assay concerns the target PML protein (UniProt P29590). Description: co-immunoprecipitation (anti-HA IP, anti-PML immunoblot, densitometry). The note with it: HepaRG cells transfected with 10 μg plasmid; lysates prepared 48 h posttransfection; two independent experiments; parent: est. 7.8; read off a plot.

This is an account of results in PMC10269885.

Chain of UniProt P29590 (P29590 whole entry): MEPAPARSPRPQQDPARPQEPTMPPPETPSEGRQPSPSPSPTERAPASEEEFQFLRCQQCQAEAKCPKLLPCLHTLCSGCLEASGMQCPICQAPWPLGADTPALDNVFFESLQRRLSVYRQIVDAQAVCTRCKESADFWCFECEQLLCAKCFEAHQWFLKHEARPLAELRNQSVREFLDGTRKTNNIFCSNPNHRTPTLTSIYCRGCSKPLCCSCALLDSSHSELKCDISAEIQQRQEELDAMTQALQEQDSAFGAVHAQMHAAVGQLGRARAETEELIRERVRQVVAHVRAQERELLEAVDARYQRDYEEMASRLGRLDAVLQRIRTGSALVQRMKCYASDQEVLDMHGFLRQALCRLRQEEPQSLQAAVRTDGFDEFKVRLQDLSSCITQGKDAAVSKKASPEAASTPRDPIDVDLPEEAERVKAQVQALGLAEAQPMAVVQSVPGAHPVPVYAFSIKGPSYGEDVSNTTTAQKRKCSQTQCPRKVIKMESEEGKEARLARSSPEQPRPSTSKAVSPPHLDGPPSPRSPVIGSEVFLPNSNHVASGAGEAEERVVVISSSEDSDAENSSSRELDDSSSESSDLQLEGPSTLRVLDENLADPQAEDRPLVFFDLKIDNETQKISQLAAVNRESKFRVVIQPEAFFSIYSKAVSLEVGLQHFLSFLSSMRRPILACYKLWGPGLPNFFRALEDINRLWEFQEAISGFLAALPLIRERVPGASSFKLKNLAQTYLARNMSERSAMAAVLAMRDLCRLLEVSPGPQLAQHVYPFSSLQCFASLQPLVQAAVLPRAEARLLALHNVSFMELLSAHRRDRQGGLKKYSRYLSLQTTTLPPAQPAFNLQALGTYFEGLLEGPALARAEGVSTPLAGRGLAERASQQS

Take “HA-tagged wild-type HBV core protein (pCore-HA wt) K7R; K96R”: the response (% input of PML co-IP) was found to be 0.1.
